What was measured:
Experiment in all cases: Kinase Profiling Assay
Format in all cases: biochemical
Conditions in all cases: 100 μM
CDK9/cyclin T1 (h) = target: T1, CDK9/cyclin T1 (h) (Homo sapiens, UniProt P50750)
T1 construct: purchased Millipore
In short: (§1)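 Scintillation counting quantifies radiolabeled, positively charged substrate retained on a negatively charged filter after kinase reaction with labeled ATP; inhibitor peptide present.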

EphA1 (h) = target: T2, EphA1 (h) (Homo sapiens, UniProt P21709)
T2 construct: purchased Millipore
T2 sequence (P21709 26-976): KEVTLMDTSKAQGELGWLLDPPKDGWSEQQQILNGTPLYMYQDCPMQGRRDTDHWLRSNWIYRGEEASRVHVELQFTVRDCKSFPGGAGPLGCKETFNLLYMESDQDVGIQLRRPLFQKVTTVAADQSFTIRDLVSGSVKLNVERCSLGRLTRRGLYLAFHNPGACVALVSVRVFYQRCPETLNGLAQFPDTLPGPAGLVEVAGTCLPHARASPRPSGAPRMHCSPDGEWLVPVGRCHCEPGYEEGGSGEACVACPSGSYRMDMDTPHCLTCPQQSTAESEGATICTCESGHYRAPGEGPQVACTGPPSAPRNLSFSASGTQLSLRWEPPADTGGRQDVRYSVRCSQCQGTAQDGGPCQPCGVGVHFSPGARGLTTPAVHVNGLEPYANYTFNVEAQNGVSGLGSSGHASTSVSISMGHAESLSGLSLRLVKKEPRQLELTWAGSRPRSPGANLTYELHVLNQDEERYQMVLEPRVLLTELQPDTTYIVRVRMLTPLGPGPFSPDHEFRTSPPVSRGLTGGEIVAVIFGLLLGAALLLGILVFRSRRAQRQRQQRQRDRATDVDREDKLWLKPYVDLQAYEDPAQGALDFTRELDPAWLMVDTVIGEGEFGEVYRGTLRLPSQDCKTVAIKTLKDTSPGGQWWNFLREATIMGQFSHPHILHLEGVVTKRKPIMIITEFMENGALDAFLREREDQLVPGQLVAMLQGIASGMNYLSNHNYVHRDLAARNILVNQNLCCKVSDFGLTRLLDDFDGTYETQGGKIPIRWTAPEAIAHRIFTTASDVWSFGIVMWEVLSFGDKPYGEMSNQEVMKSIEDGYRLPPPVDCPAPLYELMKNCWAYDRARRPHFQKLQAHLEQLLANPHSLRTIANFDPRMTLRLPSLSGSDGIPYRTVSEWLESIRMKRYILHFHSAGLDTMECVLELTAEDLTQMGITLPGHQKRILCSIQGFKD
In short: as §1

MST3 (h) = target: T3, MST3 (h) (Homo sapiens, UniProt Q9Y6E0)
T3 construct: purchased Millipore
T3 sequence (Q9Y6E0 whole entry): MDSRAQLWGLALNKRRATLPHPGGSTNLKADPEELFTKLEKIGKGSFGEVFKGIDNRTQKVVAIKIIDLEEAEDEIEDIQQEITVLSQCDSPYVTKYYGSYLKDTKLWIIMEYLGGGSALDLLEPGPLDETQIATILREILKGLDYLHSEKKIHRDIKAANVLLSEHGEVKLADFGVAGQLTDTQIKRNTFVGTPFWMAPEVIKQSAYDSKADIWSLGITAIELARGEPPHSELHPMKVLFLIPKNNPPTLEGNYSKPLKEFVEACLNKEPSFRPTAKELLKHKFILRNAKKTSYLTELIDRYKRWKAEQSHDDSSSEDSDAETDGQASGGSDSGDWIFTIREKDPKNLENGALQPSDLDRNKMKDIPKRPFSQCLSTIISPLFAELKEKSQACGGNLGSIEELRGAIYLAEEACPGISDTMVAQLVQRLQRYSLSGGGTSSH
In short: as §1

PKCμ (h) = target: T4, PKCμ (h) (Homo sapiens, UniProt Q15139)
T4 sequence (Q15139 1-912): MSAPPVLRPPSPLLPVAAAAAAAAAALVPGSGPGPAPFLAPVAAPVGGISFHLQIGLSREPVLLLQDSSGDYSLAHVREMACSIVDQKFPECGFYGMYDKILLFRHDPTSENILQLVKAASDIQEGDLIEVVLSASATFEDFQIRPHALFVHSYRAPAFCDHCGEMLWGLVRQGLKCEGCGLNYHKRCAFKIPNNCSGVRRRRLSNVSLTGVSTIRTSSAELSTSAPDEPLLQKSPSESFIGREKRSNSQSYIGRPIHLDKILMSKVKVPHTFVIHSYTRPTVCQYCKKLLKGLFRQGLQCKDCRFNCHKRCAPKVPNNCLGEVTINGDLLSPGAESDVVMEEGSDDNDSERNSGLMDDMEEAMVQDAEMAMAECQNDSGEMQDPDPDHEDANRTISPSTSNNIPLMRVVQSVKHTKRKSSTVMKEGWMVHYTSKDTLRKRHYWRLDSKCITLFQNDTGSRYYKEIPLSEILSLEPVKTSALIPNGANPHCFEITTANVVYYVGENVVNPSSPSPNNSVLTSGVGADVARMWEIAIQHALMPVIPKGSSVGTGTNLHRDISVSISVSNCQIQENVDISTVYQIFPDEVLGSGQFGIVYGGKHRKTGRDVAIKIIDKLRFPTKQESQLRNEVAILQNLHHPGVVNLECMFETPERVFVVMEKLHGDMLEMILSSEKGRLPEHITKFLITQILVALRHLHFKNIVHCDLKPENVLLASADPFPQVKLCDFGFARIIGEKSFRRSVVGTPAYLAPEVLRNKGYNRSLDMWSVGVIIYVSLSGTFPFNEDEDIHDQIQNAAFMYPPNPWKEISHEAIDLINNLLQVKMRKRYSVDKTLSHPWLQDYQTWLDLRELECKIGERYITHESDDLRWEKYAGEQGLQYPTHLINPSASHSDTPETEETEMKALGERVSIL
In short: as §1

Pim-2 (h) = target: T5, Pim-2 (h) (Homo sapiens, UniProt Q9P1W9)
T5 construct: purchased Millipore
T5 sequence (Q9P1W9 whole entry): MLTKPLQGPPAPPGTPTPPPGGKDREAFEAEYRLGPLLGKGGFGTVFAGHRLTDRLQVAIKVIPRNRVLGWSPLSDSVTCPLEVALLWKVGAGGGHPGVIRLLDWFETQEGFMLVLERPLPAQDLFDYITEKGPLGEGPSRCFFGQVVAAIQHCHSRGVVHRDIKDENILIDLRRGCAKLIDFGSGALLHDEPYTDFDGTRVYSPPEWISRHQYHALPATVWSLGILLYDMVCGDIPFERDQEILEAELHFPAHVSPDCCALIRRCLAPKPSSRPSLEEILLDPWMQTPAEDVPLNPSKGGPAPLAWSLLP
In short: as §1

Plk3 (h) = Plk3 (h) (Homo sapiens, UniProt Q9H4B4)
Sequence of Plk3 (h) (Q9H4B4 whole entry): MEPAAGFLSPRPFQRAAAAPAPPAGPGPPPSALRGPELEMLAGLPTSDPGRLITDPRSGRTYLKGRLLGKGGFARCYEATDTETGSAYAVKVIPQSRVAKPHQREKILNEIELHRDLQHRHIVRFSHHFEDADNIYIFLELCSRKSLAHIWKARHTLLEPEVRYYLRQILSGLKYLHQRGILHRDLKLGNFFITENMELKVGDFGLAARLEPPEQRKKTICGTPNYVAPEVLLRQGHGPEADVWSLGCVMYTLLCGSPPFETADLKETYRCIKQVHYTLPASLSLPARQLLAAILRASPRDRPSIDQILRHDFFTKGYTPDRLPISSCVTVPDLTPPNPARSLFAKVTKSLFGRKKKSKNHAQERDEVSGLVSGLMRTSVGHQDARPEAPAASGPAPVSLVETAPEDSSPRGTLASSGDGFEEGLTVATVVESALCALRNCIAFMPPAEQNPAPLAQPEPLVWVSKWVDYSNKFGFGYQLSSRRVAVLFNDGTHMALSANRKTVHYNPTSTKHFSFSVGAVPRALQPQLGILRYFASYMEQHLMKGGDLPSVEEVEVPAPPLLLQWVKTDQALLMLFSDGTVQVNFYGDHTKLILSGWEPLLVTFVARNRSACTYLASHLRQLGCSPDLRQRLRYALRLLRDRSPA
In short: as §1

T1 sequence (P50750 whole entry): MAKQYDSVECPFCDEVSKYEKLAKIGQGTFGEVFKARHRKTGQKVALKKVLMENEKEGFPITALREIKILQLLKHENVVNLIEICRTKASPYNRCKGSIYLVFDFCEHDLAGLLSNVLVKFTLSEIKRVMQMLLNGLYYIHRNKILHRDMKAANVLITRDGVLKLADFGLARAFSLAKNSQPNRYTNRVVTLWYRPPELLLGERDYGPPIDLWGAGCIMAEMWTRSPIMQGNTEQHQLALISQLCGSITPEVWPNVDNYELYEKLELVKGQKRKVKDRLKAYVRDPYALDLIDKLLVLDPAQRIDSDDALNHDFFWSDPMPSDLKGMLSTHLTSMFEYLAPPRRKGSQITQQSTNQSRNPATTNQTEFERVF
T1 sequence (O60563 whole entry partner): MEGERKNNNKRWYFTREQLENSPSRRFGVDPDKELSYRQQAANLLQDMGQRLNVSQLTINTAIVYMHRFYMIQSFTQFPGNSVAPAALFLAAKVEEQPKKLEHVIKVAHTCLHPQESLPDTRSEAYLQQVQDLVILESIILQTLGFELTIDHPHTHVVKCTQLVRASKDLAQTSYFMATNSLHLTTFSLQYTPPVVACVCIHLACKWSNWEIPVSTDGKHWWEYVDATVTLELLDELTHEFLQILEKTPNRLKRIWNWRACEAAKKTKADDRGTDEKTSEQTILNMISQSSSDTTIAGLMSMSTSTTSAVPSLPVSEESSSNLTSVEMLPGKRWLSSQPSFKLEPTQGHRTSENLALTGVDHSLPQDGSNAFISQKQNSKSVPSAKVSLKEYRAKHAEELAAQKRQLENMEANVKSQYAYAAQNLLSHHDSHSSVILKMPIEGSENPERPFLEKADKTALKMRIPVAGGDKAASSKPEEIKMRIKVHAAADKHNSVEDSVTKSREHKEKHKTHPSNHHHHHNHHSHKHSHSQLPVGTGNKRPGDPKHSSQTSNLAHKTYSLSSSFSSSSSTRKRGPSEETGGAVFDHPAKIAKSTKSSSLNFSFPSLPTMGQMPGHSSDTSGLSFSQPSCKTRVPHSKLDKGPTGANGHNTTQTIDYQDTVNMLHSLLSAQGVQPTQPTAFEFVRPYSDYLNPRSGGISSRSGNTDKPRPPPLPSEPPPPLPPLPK

Sequence | % activity (CDK9/cyclin T1 (h)) [%] | % activity (EphA1 (h)) [%] | % activity (MST3 (h)) [%] | % activity (PKCμ (h)) [%] | % activity (Pim-2 (h)) [%] | % activity (Plk3 (h)) [%]
FAKLAARLYRKALARQLGVAA [MMI-0300] | 91 | 73 | 45 | 22 | 76 | 127
HRRIKAWLKKIKALARQLGVAA (Mammalian) [MMI-0500] | 6 | 40 | 4 | 10 | 46 | 122
KAFAKLAARLYRKALARQLGVAA [MMI-0400] | 235 | 61 | 36 | 14 | 92 | 129
YARAAARQARAKALNRQLGVA (Mammalian) [MMI-0200] |  |  | 95 | 73 | 74 | 

— patent US10500249B2, “Compositions and methods for preventing or treating diseases, conditions, or processes characterized by aberrant fibroblast proliferation and extracellular matrix deposition” (MOERAE MATRIX, INC., priority 2014, dated 2019)
